The results in this text go back to publication PMC9371724 (2022).

T1: HA69 peptide on HLA DQB1*06:02/DQA1*01:02 (DQ0602) (human)
T1 peptide: AMERNAGSGIIISDT

T2: hemagglutinin (HA) of pandemic 2009 H1N1 (pHA, HA69) peptide on HLA-DQA1*01:02 / HLA-DQB1*06:02 (human)
T2 peptide: AMERNAGSGIIISDT

B1: TCR CAMREGHIQGAQKLVF / CASSSGNLNTEAFF (TCR)
alpha TRAV14/DV4 TRAJ54 CDR3: CAMREGHIQGAQKLVF
beta TRBV19 TRBJ1-1 CDR3: CASSSGNLNTEAFF
B2: TCR CIVRSQGGSYIPTF / CATSRDTMTSIGTDTQYF (TCR)
alpha TRAV26-1 TRAJ6 CDR3: CIVRSQGGSYIPTF
beta TRBV15 TRBJ2-3 CDR3: CATSRDTMTSIGTDTQYF
B3: TCR CIVRAGGTSYGKLTF / CAWSPLAGTGAPQPQHF (TCR)
alpha TRAV26-1 TRAJ52 CDR3: CIVRAGGTSYGKLTF
beta TRBV30 TRBJ1-5 CDR3: CAWSPLAGTGAPQPQHF
B4: TCR CAVEETSGSRLTF / CASSQPDTRADTQYF (TCR)
alpha TRAV39 TRAJ58 CDR3: CAVEETSGSRLTF
beta TRBV4-2 TRBJ2-3 CDR3: CASSQPDTRADTQYF
B5: TCR CAASRGTSYDKVIF / CSVRGLYNEQFF (TCR)
alpha TRAV13-1 TRAJ50 CDR3: CAASRGTSYDKVIF
beta TRBV29-1 TRBJ2-1 CDR3: CSVRGLYNEQFF
B6: TCR755 (TCR)
alpha TRAV12-3 TRAJ8 CDR3: CAMSETRFQKLVF
beta TRBV19 TRBJ2-7 CDR3: CASSSTGGNYEQYF
B7: TCR861 (TCR)
alpha TRAV13-1 TRAJ50 CDR3: CAASRGTSYDKVIF
beta TRBV29-1 TRBJ2-1 CDR3: CSVRSLYNEQFF
B8: TCR CIVRVATNQGGKLIF / CASSPQGGLAEQYF (TCR)
alpha TRAV26-1 TRAJ23 CDR3: CIVRVATNQGGKLIF
beta TRBV19 TRBJ2-7 CDR3: CASSPQGGLAEQYF
B9: TCR CAVSGGNAGNMLTF / CATQKGDRGQSWGYTF (TCR)
alpha TRAV2 TRAJ39 CDR3: CAVSGGNAGNMLTF
beta TRBV6-1 TRBJ1-2 CDR3: CATQKGDRGQSWGYTF
B10: TCR CAVSDNPRVQGAQKLVF / CSAAGTGGAGTEAFF (TCR)
alpha TRAV8-6 TRAJ54 CDR3: CAVSDNPRVQGAQKLVF
beta TRBV29-1 TRBJ1-1 CDR3: CSAAGTGGAGTEAFF
B11: TCR CIVRVLTNQGGKLIF / CASSFQGLSTDTQYF (TCR)
alpha TRAV26-1 TRAJ23 CDR3: CIVRVLTNQGGKLIF
beta TRBV12-3 TRBJ2-3 CDR3: CASSFQGLSTDTQYF
B12: TCR CAARQMDSSYKLIF / CASSVASSSYNEQFF (TCR)
alpha TRAV23/DV6 TRAJ12 CDR3: CAARQMDSSYKLIF
beta TRBV4-2 TRBJ2-1 CDR3: CASSVASSSYNEQFF
B13: TCR CIVRVATNQAGTALIF / CASSTQGAFAEAFF (TCR)
alpha TRAV26-1 TRAJ15 CDR3: CIVRVATNQAGTALIF
beta TRBV19 TRBJ1-1 CDR3: CASSTQGAFAEAFF
B14: TCR CIVRVGTNQGGKLIF / CASSQDRAGTNTEAFF (TCR)
alpha TRAV26-1 TRAJ23 CDR3: CIVRVGTNQGGKLIF
beta TRBV4-2 TRBJ1-1 CDR3: CASSQDRAGTNTEAFF
B15: TCR CVVNGEAPGNQFYF / CASSVASSSYNEQFF (TCR)
alpha TRAV12-1 TRAJ49 CDR3: CVVNGEAPGNQFYF
beta TRBV4-2 TRBJ2-1 CDR3: CASSVASSSYNEQFF
B16: TCR CATGSYNTDKLIF / CASSPDGTGVGNTIYF (TCR)
alpha TRAV17 TRAJ34 CDR3: CATGSYNTDKLIF
beta TRBV4-2 TRBJ1-3 CDR3: CASSPDGTGVGNTIYF
B17: TCR CAVSPGNNQGGKLIF / CASSTQGAGEAFF (TCR)
alpha TRAV8-2 TRAJ23 CDR3: CAVSPGNNQGGKLIF
beta TRBV19 TRBJ1-1 CDR3: CASSTQGAGEAFF
B18: TCR CAVSDGGTSYGKLTF / CASSQGNTGHSPLHF (TCR)
alpha TRAV8-6 TRAJ52 CDR3: CAVSDGGTSYGKLTF
beta TRBV4-3 TRBJ1-6 CDR3: CASSQGNTGHSPLHF
B19: TCR CALSGDNAGNNRKLIW / CASNSRLAGGHVAYNEQFF (TCR)
alpha TRAV19 TRAJ38 CDR3: CALSGDNAGNNRKLIW
beta TRBV12-3 TRBJ2-1 CDR3: CASNSRLAGGHVAYNEQFF
B20: TCR CAVSPSDSWGKLQF / CASSYPGLSQETQYF (TCR)
alpha TRAV8-2 TRAJ24 CDR3: CAVSPSDSWGKLQF
beta TRBV5-5 TRBJ2-5 CDR3: CASSYPGLSQETQYF
B21: TCR CIVRANTGNQFYF / CASSPDGTGVGNTIYF (TCR)
alpha TRAV26-1 TRAJ49 CDR3: CIVRANTGNQFYF
beta TRBV4-2 TRBJ1-3 CDR3: CASSPDGTGVGNTIYF
B22: TCR CVVSEPGTYKYIF / CASSPDGTGVGNTIYF (TCR)
alpha TRAV8-2 TRAJ40 CDR3: CVVSEPGTYKYIF
beta TRBV4-2 TRBJ1-3 CDR3: CASSPDGTGVGNTIYF
B23: TCR CIVRVVSNQGGKLIF / CASSPQGFDYGYTF (TCR)
alpha TRAV26-1 TRAJ23 CDR3: CIVRVVSNQGGKLIF
beta TRBV19 TRBJ1-2 CDR3: CASSPQGFDYGYTF
B24: TCR CAMRGQDSGYSTLTF / CASSIVRGLYSNQPQHF (TCR)
alpha TRAV14/DV4 TRAJ11 CDR3: CAMRGQDSGYSTLTF
beta TRBV19 TRBJ1-5 CDR3: CASSIVRGLYSNQPQHF
B25: TCR CIVRVGTNQAGTALIF / CASREQGLDYGYTF (TCR)
alpha TRAV26-1 TRAJ15 CDR3: CIVRVGTNQAGTALIF
beta TRBV19 TRBJ1-2 CDR3: CASREQGLDYGYTF
B26: TCR CATDTENNARLMF / CSAGGAGPKMQYF (TCR)
alpha TRAV17 TRAJ31 CDR3: CATDTENNARLMF
beta TRBV20-1 TRBJ2-7 CDR3: CSAGGAGPKMQYF
B27: TCR CLVGDMEYGNKLVF / CASSQAPPSGNEQFF (TCR)
alpha TRAV4 TRAJ47 CDR3: CLVGDMEYGNKLVF
beta TRBV4-2 TRBJ2-1 CDR3: CASSQAPPSGNEQFF

The first assay concerns the target T1, HA69 peptide on HLA …. Nature of the assay: activation reporter or marker.
As for B1, the binding result is given as “recognises”.

In the case of B2, the binding result was “recognises”.

B3: the binding result is on record as “recognises”.

Take B4: the binding result is recorded as “recognises”.

Regarding B5, the binding result is “recognises”.

With B6, the binding result is “recognises”.

Regarding B7, the binding result is “recognises”.

In another assay the target is T2, hemagglutinin (HA) of pandemic 2009 …. Nature of the assay: activation reporter or marker.
For the molecule B8, the binding result is reported as “no recognition”.

Regarding B9, the binding result is “no recognition”.

In the case of B10, the binding result is on record as “no recognition”.

For the molecule B11, the binding result is recorded as “no recognition”.

In the case of B12, the binding result is reported as “no recognition”.

Regarding B13, the binding result is recorded as “no recognition”.

Take B14: the binding result is listed as “no recognition”.

As for B15, the binding result is reported as “no recognition”.

For B16, the binding result is recorded as “no recognition”.

Take B17: the binding result was “no recognition”.

For the molecule B18, the binding result is on record as “no recognition”.

Consider B19, for which the binding result is “no recognition”.

As for B20, the binding result was “no recognition”.

Turning to B21, the binding result was “no recognition”.

B22: the binding result is “no recognition”.

Regarding B23, the binding result was “no recognition”.

Regarding B24, the binding result is “no recognition”.

As for B25, the binding result is on record as “no recognition”.

For B26, the binding result is recorded as “no recognition”.

Consider B27, for which the binding result is “no recognition”.
